From patent US20250215097A1 (BEIJING TIANNUOJIANCHENG PHARMA TECH, published 2025)
Residue numbers refer to the chain shown, from its start. One block for each binder: values may come before it.

Tests used:
human CCR4 = target: T1, human CCR4 (human, UniProt P51679 1-360); assay: flow cytometry of purified Fab on cells stably expressing human CCR4
T1 construct: also called hCCR4; human CCR4+ cells
T1 sequence: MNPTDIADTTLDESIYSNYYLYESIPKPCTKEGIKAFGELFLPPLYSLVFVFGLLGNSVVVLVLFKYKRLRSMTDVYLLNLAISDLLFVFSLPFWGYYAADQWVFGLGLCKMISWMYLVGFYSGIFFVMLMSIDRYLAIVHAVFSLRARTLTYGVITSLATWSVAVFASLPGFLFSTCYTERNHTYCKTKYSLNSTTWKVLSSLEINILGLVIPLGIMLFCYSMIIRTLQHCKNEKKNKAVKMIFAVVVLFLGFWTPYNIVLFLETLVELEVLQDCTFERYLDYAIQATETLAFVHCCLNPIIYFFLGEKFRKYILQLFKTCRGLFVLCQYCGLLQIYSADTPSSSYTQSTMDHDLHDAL
Description: (§1) The positive clones obtained in example 1 were re-induced to express and purified to obtain a Fab antibody. The binding to cells stably expressing human CCR8, cynomolgus monkey CCR8 and human CCR4 was tested respectively, 5×10⁴ test cells were added to each well of a 96-well U-shaped plate and centrifuged to discard the supernatant, 100 μL/well of the purified Fab antibody was added and the mixture was incubated on ice for 60 minutes. After washing away the unbound primary antibody, 50 μL of a secondary antibody solution (Anti-human IgG, F(ab′)2-AF647, Jackson Immuno Research) was added to each well and the mixture was incubated on ice for 30 minutes. After washing, 50 μL of a PI/BSA solution at 5 μg/mL was added to each well and the mixture was incubated on ice for 5 minutes. Then excess secondary antibody was washed away with 0.5% BSA, the cells were resuspended by adding a PBS solution, and binding of the antibody to the cells was detected using a flow cytometer (Intellicyte iQue).

cynomolgus monkey CCR8 [1] = target: T2, cynomolgus monkey CCR8 (cynomolgus monkey, UniProt O97665 1-356 (rhesus entry)); assay: flow cytometry of purified Fab on cells stably expressing cynomolgus monkey CCR8
T2 construct: Full-length, stably expressed on CHO cells; also called cynoCCR8; CHO-cynoCCR8
Description: as §1

human CCR8 [2] = target: T3, human CCR8 (human, UniProt P51685 1-355); assay: flow cytometry, chimeric IgG on CHO-hCCR8 cells
T3 construct: Full-length human CCR8 stably expressed on CHO or HEK293 cells; also endogenous on HuT78 cells in one ADCC assay; also called hCCR8; CHO-hCCR8
Description: (§2) 5×10⁴ CHO-hCCR8 or CHO-cynoCCR8 cells were added per well in a 96-well U-shaped plate and centrifuged to discard the supernatant, 100 μL of a gradiently diluted anti-CCR8 chimeric antibody or anti-KLH isotype control antibody was added per well and the mixture was incubated on ice for 60 minutes. After the unbound primary antibody was washed away, 50 μL of a secondary antibody AlexaFluro647 anti-human IgG (Jackson Immuno Research #109-606-170) was added per well and the mixture was incubated on ice for 30 minutes. After the washing, 50 μL of 5 μg/mL of a PI/BSA solution was added to each well and the mixture was incubated on ice for 5 minutes. Then excess secondary antibody was washed away with 0.5% BSA, the cells were resuspended by adding a PBS solution, and binding of the antibody to the cells was detected using a flow cytometer (Intellicyte iQue). The fluorescence value of a Pi-negative cell population was analyzed. Cell-binding curves were fitted by Graphpad Prism 7 (FIG. 2). The chimeric antibodies of 87D8, 102H5, 109F6, 110G2, 113B3, 139A9, 144D2, etc. all bound with high affinities to human CCR8+ cells CHO-hCCR8 and cynomolgus monkey CCR8+ cells CHO-cynoCCR8.

cynomolgus monkey CCR8 [3] = target: T2, cynomolgus monkey CCR8; assay: flow cytometry, chimeric IgG on CHO-cynoCCR8 cells
Description: as §2

human CCR8 [4] = target: T3, human CCR8; assay: cell-based or functional assay
human CCR8 [5] = target: T3, human CCR8; assay: flow cytometry on CHO-hCCR8 cells, parental chimeric antibody
Description: (§3) 5×10⁴ CHO-hCCR8 or CHO-cynoCCR8 cells were added per well in a 96-well U-shaped plate and centrifuged to discard the supernatant. 100 μL of a gradiently diluted anti-CCR8 chimeric antibody was added per well and the mixture was incubated on ice for 60 minutes. After the unbound primary antibody was washed away, 50 μL, of a secondary antibody AlexaFluro647 anti-human IgG (Jackson Immuno Research #109-606-170) was added per well and the mixture was incubated on ice for 30 minutes. After the washing, 50 μL of 5 μg/mL of a Pi/BSA solution was added to each well and the mixture was incubated on ice for 5 minutes. Then excess secondary antibody was washed away with 0.5% BSA, the cells were resuspended by adding a PBS solution, and binding of the antibody to the cells was detected using a flow cytometer (BD Celesta). The fluorescence value of a PI-negative cell population was analyzed. Cell-binding curves were fitted by Graphpad Prism 7.

cynomolgus monkey CCR8 [6] = target: T2, cynomolgus monkey CCR8; assay: flow cytometry on CHO-cynoCCR8 cells, parental chimeric antibody
Description: as §3

human CCR8 [7] = target: T3, human CCR8; assay: cell-based or functional assay; remark: listed apart in the source
human CCR8 [8] = target: T3, human CCR8; assay: cell-based or functional assay; remark: listed apart in the source

T3 sequence (P51685 whole entry): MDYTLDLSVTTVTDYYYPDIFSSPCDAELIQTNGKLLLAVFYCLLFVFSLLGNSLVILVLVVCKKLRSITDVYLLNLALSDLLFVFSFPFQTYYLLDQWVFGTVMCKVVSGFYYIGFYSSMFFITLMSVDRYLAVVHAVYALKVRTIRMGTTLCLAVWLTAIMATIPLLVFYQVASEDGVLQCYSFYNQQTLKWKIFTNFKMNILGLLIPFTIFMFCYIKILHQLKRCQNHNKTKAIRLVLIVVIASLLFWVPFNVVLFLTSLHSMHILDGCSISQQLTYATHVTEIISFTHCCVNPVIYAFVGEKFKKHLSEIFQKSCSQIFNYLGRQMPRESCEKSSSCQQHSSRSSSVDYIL
T2 sequence (O97665 other isoform, or with tags, fused parts or gaps): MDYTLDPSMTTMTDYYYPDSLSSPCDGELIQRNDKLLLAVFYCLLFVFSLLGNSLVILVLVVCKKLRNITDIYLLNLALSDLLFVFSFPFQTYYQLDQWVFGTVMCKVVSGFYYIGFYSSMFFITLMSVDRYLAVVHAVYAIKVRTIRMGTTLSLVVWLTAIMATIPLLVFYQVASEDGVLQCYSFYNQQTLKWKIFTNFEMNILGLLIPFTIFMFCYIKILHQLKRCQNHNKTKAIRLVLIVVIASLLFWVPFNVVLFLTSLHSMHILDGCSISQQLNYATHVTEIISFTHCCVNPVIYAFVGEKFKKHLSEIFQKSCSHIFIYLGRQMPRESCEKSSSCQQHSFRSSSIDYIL

- binding result (human CCR4): no binding
- binding result (cynomolgus monkey CCR8 [1]): binds
B1: 29A8 Fab antibody (Fab, V domains shown)
VH: EVQLVESGGGLVQPKGSLKLSCAASGFTFNAFAMNWVRQAPGKGLEWVARIRSKSNNYATYYADSVIDRFTISRDDSQSMLYLQMNNLKTEDTAMYYCVRGKEAGAYYAMDYWGQGTSVTVSS
VL: DIVMTQAAPSVPVTPGESVSISCRSSKSLLHSNGNTYLYWFLQRPGQSPQLLIYRMSNLASGVPDRFSGSGSGTAFTLRISKVEAEDVGVYYCMQHLEYPFTFGGGTKLEIK
notes: detected with anti-human IgG F(ab')2; also called clone 29A8

- EC50 (human CCR8 [2]): 1.08 nM
- EC50 (cynomolgus monkey CCR8 [3]): 2.75 nM
- ADCC EC50 (nM), NK92-CD16A effectors, HEK293-hCCR8 targets, LDH release (human CCR8 [4]): 0.07 nM
- EC50 (human CCR8 [5]): 0.88 nM
- EC50 (cynomolgus monkey CCR8 [6]): 1.32 nM
B2: 144D2 anti-CCR8 chimeric antibody (antibody, V domains shown)
VH: B1 VH
VL: B1 VL with K82R, F101L, G105A

- binding result (human CCR4): no binding
- binding result (cynomolgus monkey CCR8 [1]): binds
B3: 30A7 Fab antibody (Fab, V domains shown)
VH: B1 VH with E1Q, A31T, F32Y, N57Y, I67K, V99L
VL: B1 VL with K82R, G105A
notes: also called clone 30A7

- ADCC EC50 (nM), PBMC FcγRIIIA158F/F effectors, HEK293-hCCR8 targets (human CCR8 [7]): 0.08 nM
- ADCC EC50 (nM), PBMC FcγRIIIA158V/V effectors, HEK293-hCCR8 targets (human CCR8 [7]): 0.05 nM
- ADCC maximal lysis rate, PBMC FcγRIIIA158F/F effectors, HEK293-hCCR8 targets (human CCR8 [7]): 68%
- ADCC maximal lysis rate, PBMC FcγRIIIA158V/V effectors, HEK293-hCCR8 targets (human CCR8 [7]): 76%
- EC50 (human CCR8 [2]): 0.71 nM
- ADCC maximal lysis rate, NK92-CD16A effectors, HEK293-hCCR8 targets (human CCR8 [8]): 33%
- EC50 (cynomolgus monkey CCR8 [3]): 1.92 nM
- ADCC EC50 (nM), NK92-CD16A effectors, HEK293-hCCR8 targets, LDH release (human CCR8 [4]): 0.1 nM
- EC50 (human CCR8 [5]): 0.57 nM
- EC50 (cynomolgus monkey CCR8 [6]): 1.78 nM
B4: 87D8 anti-CCR8 chimeric antibody (antibody, V domains shown)
VH: B1 VH with K19R, A31T, F32Y, V48I, I67K
VL: B1 VL with K82R, F101L, G105A, I111L
